# Patent US20120309692A1
# Target: recombinant human glandular kallikrein 2 (hK2) (human) (UniProt P20151)
# Experiment: cell-based or functional assay
"hK2 Activity (%) of inhibitor-free control, inhibitor at 0.8 µM [%]","hK2 Activity (%) of inhibitor-free control, inhibitor at 0.08 µM [%]","hK2 Activity (%) of inhibitor-free control, inhibitor at 4 µM [%]","hK2 Activity (%) of inhibitor-free control, inhibitor at 0.016 µM [%]",Binder
100,–,–,–,"α1-antichymotrypsin (ACT) (protein, human, UniProt P01011 24-423, looked up) HPNSPLDEENLTQENQDRGTHVDLGLASANVDFAFSLYKQLVLKAPDKNVIFSPLSISTALAFLSLGAHNTTLTEILKGLKFNLTETSEAEIHQSFQHLLRTLNQSSDELQLSMGNAMFVKEQLSLLDRFTEDAKRLYGSEAFATDFQDSAAAKKLINDYVKNGTRGKITDLIKDLDSQTMMVLVNYIFFKAKWEMPFDPQDTHQSRFYLSKKKWVMVPMMSLHHLTIPYFRDEELSCTVVELKYTGNASALFILPDQDKMEEVEAMLLPETLKRWRDSLEFREIGELYLPKFSISRDYNLNDILLQLGIEEAFTSKADLSGITGARNLAVSQVVHKAVLDVFEEGTEASAATAVKITLLSALVETRTIVRFNRPFLMIIVPTDTQNIFFMSKVTNPKQA"
–,100,89,–,"PSTI (protein, UniProt P00995 24-79, looked up) DSLGREAKCYNELNGCTKIYDPVCGTDGNTYPNECVLCFENRKRQTSILIQKSGPC"
–,0,–,50,"protein C inhibitor (PCI) (protein, UniProt P05154 20-406, looked up) HRHHPREMKKRVEDLHVGATVAPSSRRDFTFDLYRALASAAPSQSIFFSPVSISMSLAMLSLGAGSSTKMQILEGLGLNLQKSSEKELHRGFQQLLQELNQPRDGFQLSLGNALFTDLVVDLQDTFVSAMKTLYLADTFPTNFRDSAGAMKQINDYVAKQTKGKIVDLLKNLDSNAVVIMVNYIFFKAKWETSFNHKGTQEQDFYVTSETVVRVPMMSREDQYHYLLDRNLSCRVVGVPYQGNATALFILPSEGKMQQVENGLSEKTLRKWLKMFKKRQLELYLPKFSIEGSYQLEKVLPSLGISNVFTSHADLSGISNHSNIQVSEMVHKAVVEVDESGTRAAAATGTIFTFRSARLNSQRLVFNRPFLMFIVDNNILFLGKVNRP"
